Experimental data taken from patent US20200179533A1.

Tests used:
[1] = molecular target: PiT-2 receptor (human receptor gene PiT-2, SLC20A2) (human) (UniProt Q08357); assay: cell-based or functional assay
PiT-2-HA (human) = PiT-2-HA (human) (UniProt Q08357); assay: cell-based or functional assay

Substance: Amphotropic Envelope gene product included in the Reximmune-C1 and 2 retroviral vector
- EGFP+ cells (%) (transduction efficiency, PiT-2-CHO-K1) [1]: 34%
- EGFP+ cells (%) (transduction efficiency, PiT-2-MIA-PaCa-2) [1]: 78.6%
- EGFP+ cells (%) (transduction efficiency, PiT-2-RKO) [1]: 43.1%
- EGFP+ cells (%) (transduction efficiency, PiT-2-HA-HCT-15) (PiT-2-HA (human)): 14.9%
